Experimental data reported in PMC6753088, “The cryo-EM structure of the acid activatable pore-forming immune effector Macrophage-expressed gene 1” (Nature Communications, 2019).

Biological target: the molecule itself
Assay: cryo-EM structure; soluble MPEG1 ectodomain, 2.0-2.5 mg/mL, 20 mM Tris-HCl pH 7.2, 0.3 M NaCl; single particle analysis; two hexadecameric rings stacked head to head (D16, C16 or C1 imposed)

B1: human MPEG1 (Macrophage-expressed gene 1 / Perforin-2) soluble ectodomain, wild type (domain or fragment)
chain: KSGKPSGEMDEVGVQKCKNALKLPVLEVLPGGGWDNLRNVDMGRVMELTYSNCRTTEDGQYIIPDEIFTIPQKQSNLEMNSEILESWANYQSSTSYSINTELSLFSKVNGKFSTEFQRMKTLQVKDQAITTRVQVRNLVYTVKINPTLELSSGFRKELLDISDRLENNQTRMATYLAELLVLNYGTHVTTSVDAGAALIQEDHLRASFLQDSQSSRSAVTASAGLAFQNTVNFKFEENYTSQNVLTKSYLSNRTNSRVQSIGGVPFYPGITLQAWQQGITNHLVAIDRSGLPLHFFINPNMLPDLPGPLVKKVSKTVETAVKRYYTFNTYPGCTDLNSPNFNFQANTDDGSCEGKMTNFSFGGVYQECTQLSGNRDVLLCQKLEQKNPLTGDFSCPSGYSPVHLLSQIHEEGYNHLECHRKCTLLVFCKTVCEDVFQVAKAEFRAFWCVASSQVPENSGLLFGGLFSSKSINPMTNAQSCPAGYFPLRLFENLKVCVSQDYELGSRFAVPFGGFFSCTVGNPLVDPAISRDLGAPSLKKCPGGFSQHPALISDGCQVSYCVKSGLFTGGSLPPARLPPFTRPPLMSQAATNTVIVTNSENARSWIKDSQTHQWRLGEPIELRRAMNVIHGDGGGLS
- stoichiometry N: 16

B2: human MPEG1 soluble ectodomain, L425K mutant (domain or fragment)
chain: KSGKPSGEMDEVGVQKCKNALKLPVLEVLPGGGWDNLRNVDMGRVMELTYSNCRTTEDGQYIIPDEIFTIPQKQSNLEMNSEILESWANYQSSTSYSINTELSLFSKVNGKFSTEFQRMKTLQVKDQAITTRVQVRNLVYTVKINPTLELSSGFRKELLDISDRLENNQTRMATYLAELLVLNYGTHVTTSVDAGAALIQEDHLRASFLQDSQSSRSAVTASAGLAFQNTVNFKFEENYTSQNVLTKSYLSNRTNSRVQSIGGVPFYPGITLQAWQQGITNHLVAIDRSGLPLHFFINPNMLPDLPGPLVKKVSKTVETAVKRYYTFNTYPGCTDLNSPNFNFQANTDDGSCEGKMTNFSFGGVYQECTQLSGNRDVLLCQKLEQKNPLTGDFSCPSGYSPVHLLSQIHEEGYNHLECHRKCTLKVFCKTVCEDVFQVAKAEFRAFWCVASSQVPENSGLLFGGLFSSKSINPMTNAQSCPAGYFPLRLFENLKVCVSQDYELGSRFAVPFGGFFSCTVGNPLVDPAISRDLGAPSLKKCPGGFSQHPALISDGCQVSYCVKSGLFTGGSLPPARLPPFTRPPLMSQAATNTVIVTNSENARSWIKDSQTHQWRLGEPIELRRAMNVIHGDGGGLS
modifications: a glycan moiety attached to TMH-2 (residue not given)
- stoichiometry N: 16
